T1: His10 − MBP − KIF1C(714–809) (UniProt O43896 714-809)
T1 chain: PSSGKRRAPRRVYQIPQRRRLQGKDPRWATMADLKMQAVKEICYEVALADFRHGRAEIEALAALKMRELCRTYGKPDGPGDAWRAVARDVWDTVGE


Target: T1, His10 − MBP − KIF1C(714–809)
Experiment: ITC

| Ka | Binder |
| --- | --- |
| 194000 M⁻¹ | His10 − MBP − PTPN21(19–308) (domain or fragment) SKSCLVARIQLLNNEFVEFTLSVESTGQESLEAVAQRLELREVTYFSLWYYNKQNQRRWVDLEKPLKKQLDKYALEPTVYFGVVFYVPSVSQLQQEITRYQYYLQLKKDILEGSIPCTLEQAIQLAGLAVQADFGDFDQYESQDFLQKFALFPVGWLQDEKVLEEATQKVALLHQKYRGLTAPDAEMLYMQEVERMDGYGEESYPAKDSQGSDISIGACLEGIFVKHKNGRHPVVFRWHDIANMSHNKSFFALELANKEETIQFQTEDMETAKYIWRLCVARHKFYRLNQ |
| 631000 M⁻¹ | His10 − MBP−Hook3(553–624) (domain or fragment) EKLHEANNELQKKRAIIEDLEPRFNNSSLKIEELQEALRKKEEEMKQMEERYKKYLEKAKSVIRTLDPKQNQ |

— PMC12152161 (2025)
